Data: the supplement of paper PMC9112550, “Optimization of the antimicrobial peptide Bac7 by deep mutational scanning” (BMC Biology, 2022)
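Also: peptides expressed intracellularly from a pBAD plasmid library in pooled LB shake-flask culture, induced with 0.3% L-arabinose, DNA abundance read by NGS, three biological replicates, DESeq2 with apeglm shrinkage.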

Each sequence was assayed on Escherichia coli TOP10 (assay: shrunken log2 fold change of peptide-encoding DNA abundance (4.5 h post-induction vs induction); higher = less antimicrobial activity (less host growth inhibition)). Details: time post-induction: 4.5 h; library: site-saturation at positions 5, 18, 19, 20.
In the case of RRIRTRPPRLPRPRPRPEYAPRP, the “shrunken log2 fold change” value is reported as -0.00931.
With RRIRTRPPRLPRPRPRPSDPPRP the “shrunken log2 fold change” value was -0.429.
RRIRCRPPRLPRPRPRPKPHPRP was tested, and the “shrunken log2 fold change” value was 0.398.
RRIRCRPPRLPRPRPRPQACPRP was tested, and the “shrunken log2 fold change” value was 0.00494.
In the case of RRIRQRPPRLPRPRPRPSPLPRP, the “shrunken log2 fold change” value is reported as 0.0509.
RRIRTRPPRLPRPRPRPNQYPRP was tested, and the “shrunken log2 fold change” value was -0.446.
RRIRYRPPRLPRPRPRPLTMPRP was tested, and the “shrunken log2 fold change” value was -0.529.
In the case of RRIRNRPPRLPRPRPRPKAIPRP, the “shrunken log2 fold change” value is reported as -0.0372.
With RRIRNRPPRLPRPRPRPWAYPRP the “shrunken log2 fold change” value was -0.0322.
For RRIRFRPPRLPRPRPRPYLYPRP, the “shrunken log2 fold change” value was -0.498.
RRIRIRPPRLPRPRPRPYMRPRP was tested, and the “shrunken log2 fold change” value was 0.0163.
In the case of RRIRTRPPRLPRPRPRPDRRPRP, the “shrunken log2 fold change” value is reported as 0.0647.
In the case of RRIRIRPPRLPRPRPRPEPYPRP, the “shrunken log2 fold change” value is reported as 0.0464.
RRIRERPPRLPRPRPRPANQPRP was tested, and the “shrunken log2 fold change” value was 0.0465.
RRIRCRPPRLPRPRPRPDSWPRP was tested, and the “shrunken log2 fold change” value was -0.115.
With RRIRPRPPRLPRPRPRPSVHPRP the “shrunken log2 fold change” value was -0.289.
With RRIRYRPPRLPRPRPRPEANPRP the “shrunken log2 fold change” value was -0.127.
RRIRYRPPRLPRPRPRPQDAPRP was tested, and the “shrunken log2 fold change” value was -0.215.
With RRIRRRPPRLPRPRPRPCVSPRP the “shrunken log2 fold change” value was 0.0908.
With RRIRHRPPRLPRPRPRPLHTPRP the “shrunken log2 fold change” value was 0.143.
In the case of RRIRARPPRLPRPRPRPCMSPRP, the “shrunken log2 fold change” value is reported as 0.19.
RRIRQRPPRLPRPRPRPSGYPRP was tested, and the “shrunken log2 fold change” value was -0.0295.
RRIRIRPPRLPRPRPRPDMNPRP was tested, and the “shrunken log2 fold change” value was -0.146.
RRIRSRPPRLPRPRPRPESGPRP was tested, and the “shrunken log2 fold change” value was 0.351.
For RRIRFRPPRLPRPRPRPEEWPRP, the “shrunken log2 fold change” value was -0.0208.
RRIRQRPPRLPRPRPRPVKEPRP was tested, and the “shrunken log2 fold change” value was -0.0231.
In the case of RRIRVRPPRLPRPRPRPCMQPRP, the “shrunken log2 fold change” value is reported as 0.162.
In the case of RRIRSRPPRLPRPRPRPQDSPRP, the “shrunken log2 fold change” value is reported as -0.164.
RRIRERPPRLPRPRPRPTMKPRP was tested, and the “shrunken log2 fold change” value was -0.0369.
RRIRGRPPRLPRPRPRPCWYPRP was tested, and the “shrunken log2 fold change” value was 0.0725.
With RRIRLRPPRLPRPRPRPKLFPRP the “shrunken log2 fold change” value was 0.306.
In the case of RRIRHRPPRLPRPRPRPKVCPRP, the “shrunken log2 fold change” value is reported as -0.19.
RRIRLRPPRLPRPRPRPSSVPRP was tested, and the “shrunken log2 fold change” value was 0.0713.
RRIRNRPPRLPRPRPRPKDEPRP was tested, and the “shrunken log2 fold change” value was 0.536.
In the case of RRIRFRPPRLPRPRPRPSTLPRP, the “shrunken log2 fold change” value is reported as -0.757.
With RRIRLRPPRLPRPRPRPWDPPRP the “shrunken log2 fold change” value was -0.125.
In the case of RRIRWRPPRLPRPRPRPVNRPRP, the “shrunken log2 fold change” value is reported as -0.00204.
RRIRIRPPRLPRPRPRPSKEPRP was tested, and the “shrunken log2 fold change” value was -0.202.
RRIRARPPRLPRPRPRPMVQPRP was tested, and the “shrunken log2 fold change” value was -0.081.
RRIRQRPPRLPRPRPRPCYKPRP was tested, and the “shrunken log2 fold change” value was -0.271.
RRIRMRPPRLPRPRPRPFSWPRP was tested, and the “shrunken log2 fold change” value was 0.0956.
In the case of RRIRIRPPRLPRPRPRPTWRPRP, the “shrunken log2 fold change” value is reported as 0.274.
For RRIRERPPRLPRPRPRPWIPPRP, the “shrunken log2 fold change” value was 0.0136.
With RRIRNRPPRLPRPRPRPHDRPRP the “shrunken log2 fold change” value was -0.146.
In the case of RRIRKRPPRLPRPRPRPVYHPRP, the “shrunken log2 fold change” value is reported as 0.0002.
With RRIRFRPPRLPRPRPRPRDKPRP the “shrunken log2 fold change” value was -0.102.
For RRIRYRPPRLPRPRPRPKPLPRP, the “shrunken log2 fold change” value was 0.276.
With RRIRKRPPRLPRPRPRPDWLPRP the “shrunken log2 fold change” value was 0.308.
With RRIRTRPPRLPRPRPRPWVQPRP the “shrunken log2 fold change” value was -0.0274.
In the case of RRIRGRPPRLPRPRPRPLQAPRP, the “shrunken log2 fold change” value is reported as 1.86.
For RRIRARPPRLPRPRPRPINKPRP, the “shrunken log2 fold change” value was -0.311.
RRIRKRPPRLPRPRPRPTCRPRP was tested, and the “shrunken log2 fold change” value was 0.289.
With RRIRPRPPRLPRPRPRPRGAPRP the “shrunken log2 fold change” value was 0.495.
In the case of RRIRSRPPRLPRPRPRPPDWPRP, the “shrunken log2 fold change” value is reported as 0.661.
In the case of RRIRMRPPRLPRPRPRPRAQPRP, the “shrunken log2 fold change” value is reported as 0.232.
In the case of RRIRLRPPRLPRPRPRPRLQPRP, the “shrunken log2 fold change” value is reported as 0.15.
RRIRIRPPRLPRPRPRPMAKPRP was tested, and the “shrunken log2 fold change” value was -0.00776.
In the case of RRIRPRPPRLPRPRPRPQRKPRP, the “shrunken log2 fold change” value is reported as 0.113.
For RRIRGRPPRLPRPRPRPHGYPRP, the “shrunken log2 fold change” value was -0.0362.
For RRIRPRPPRLPRPRPRPLLGPRP, the “shrunken log2 fold change” value was 0.191.
RRIRHRPPRLPRPRPRPPCCPRP was tested, and the “shrunken log2 fold change” value was -0.0551.
In the case of RRIRARPPRLPRPRPRPYDHPRP, the “shrunken log2 fold change” value is reported as -0.57.
With RRIRSRPPRLPRPRPRPYFEPRP the “shrunken log2 fold change” value was -0.359.
For RRIRQRPPRLPRPRPRPGTLPRP, the “shrunken log2 fold change” value was -0.0134.
RRIRWRPPRLPRPRPRPLRHPRP was tested, and the “shrunken log2 fold change” value was 0.751.
For RRIRPRPPRLPRPRPRPTDVPRP, the “shrunken log2 fold change” value was 0.35.
RRIRRRPPRLPRPRPRPDYQPRP was tested, and the “shrunken log2 fold change” value was 0.0952.
In the case of RRIRHRPPRLPRPRPRPNHLPRP, the “shrunken log2 fold change” value is reported as -0.0856.
In the case of RRIRARPPRLPRPRPRPEEFPRP, the “shrunken log2 fold change” value is reported as 0.00844.
In the case of RRIRMRPPRLPRPRPRPRDKPRP, the “shrunken log2 fold change” value is reported as 0.0704.
In the case of RRIRPRPPRLPRPRPRPAHAPRP, the “shrunken log2 fold change” value is reported as 0.236.
For RRIRMRPPRLPRPRPRPNHHPRP, the “shrunken log2 fold change” value was -0.592.
With RRIRSRPPRLPRPRPRPVGCPRP the “shrunken log2 fold change” value was 0.281.
In the case of RRIRERPPRLPRPRPRPFCDPRP, the “shrunken log2 fold change” value is reported as 0.211.
RRIRLRPPRLPRPRPRPYAIPRP was tested, and the “shrunken log2 fold change” value was -0.233.
